Source: US20030166567

Key:
[1] = tested on: 9-mer (SEQ ID NO:12) cleavage domain peptide
[2] = tested on: 10-mer (SEQ ID NO:13) cleavage domain peptide
[3] = tested on: 19-mer (SEQ ID NO:11) cleavage domain peptide

Active MMP-9 enzyme, sequence (chain, as listed by the source): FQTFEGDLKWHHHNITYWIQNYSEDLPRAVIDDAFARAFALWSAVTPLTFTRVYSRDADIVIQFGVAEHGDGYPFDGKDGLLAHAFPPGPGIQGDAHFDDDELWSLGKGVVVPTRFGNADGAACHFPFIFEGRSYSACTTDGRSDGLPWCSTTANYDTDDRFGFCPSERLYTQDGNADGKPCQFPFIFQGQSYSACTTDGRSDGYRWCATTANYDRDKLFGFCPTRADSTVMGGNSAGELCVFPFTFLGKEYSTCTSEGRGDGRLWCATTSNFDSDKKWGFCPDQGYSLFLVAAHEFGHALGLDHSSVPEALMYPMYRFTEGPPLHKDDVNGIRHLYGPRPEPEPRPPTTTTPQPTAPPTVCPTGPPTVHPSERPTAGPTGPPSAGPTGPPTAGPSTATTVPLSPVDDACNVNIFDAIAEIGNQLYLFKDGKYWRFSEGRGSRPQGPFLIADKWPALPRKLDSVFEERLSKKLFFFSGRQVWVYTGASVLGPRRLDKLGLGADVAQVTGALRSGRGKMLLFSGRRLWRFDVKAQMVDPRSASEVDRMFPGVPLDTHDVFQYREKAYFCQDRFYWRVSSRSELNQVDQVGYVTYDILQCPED

Active MMP-9 enzyme
extended time course of MMP-9 catalyzed hydrolysis of collagen [1]: The 10-mer (SEQ ID NO:13) peptide is less effective at preventing the destruction of collagen at long time points (FIG. 9) than is the 9-mer (SEQ ID NO:12) peptide (FIG. 10)
extended time course of MMP-9 catalyzed hydrolysis of collagen [2]: The 10-mer (SEQ ID NO:13) peptide is less effective at preventing the destruction of collagen at long time points (FIG. 9) than is the 9-mer (SEQ ID NO:12) peptide (FIG. 10)
extended time course of MMP-9 catalyzed hydrolysis of collagen [3]: the 19-mer (SEQ ID NO:11) effectively inhibits the MMP-9 catalyzed hydrolysis of collagen to beyond 1000 minutes
